Values joined by “and” are separate entries in the source; they are usually repeats but may differ in a detail not shown here. Equal entries are not always repeated.
Target: human C3b (human) (UniProt P01024)
Experiment: cell-based or functional assay

Sequence of UniProt P01024 (P01024 749-1663 limits assumed, chain 1 of 2): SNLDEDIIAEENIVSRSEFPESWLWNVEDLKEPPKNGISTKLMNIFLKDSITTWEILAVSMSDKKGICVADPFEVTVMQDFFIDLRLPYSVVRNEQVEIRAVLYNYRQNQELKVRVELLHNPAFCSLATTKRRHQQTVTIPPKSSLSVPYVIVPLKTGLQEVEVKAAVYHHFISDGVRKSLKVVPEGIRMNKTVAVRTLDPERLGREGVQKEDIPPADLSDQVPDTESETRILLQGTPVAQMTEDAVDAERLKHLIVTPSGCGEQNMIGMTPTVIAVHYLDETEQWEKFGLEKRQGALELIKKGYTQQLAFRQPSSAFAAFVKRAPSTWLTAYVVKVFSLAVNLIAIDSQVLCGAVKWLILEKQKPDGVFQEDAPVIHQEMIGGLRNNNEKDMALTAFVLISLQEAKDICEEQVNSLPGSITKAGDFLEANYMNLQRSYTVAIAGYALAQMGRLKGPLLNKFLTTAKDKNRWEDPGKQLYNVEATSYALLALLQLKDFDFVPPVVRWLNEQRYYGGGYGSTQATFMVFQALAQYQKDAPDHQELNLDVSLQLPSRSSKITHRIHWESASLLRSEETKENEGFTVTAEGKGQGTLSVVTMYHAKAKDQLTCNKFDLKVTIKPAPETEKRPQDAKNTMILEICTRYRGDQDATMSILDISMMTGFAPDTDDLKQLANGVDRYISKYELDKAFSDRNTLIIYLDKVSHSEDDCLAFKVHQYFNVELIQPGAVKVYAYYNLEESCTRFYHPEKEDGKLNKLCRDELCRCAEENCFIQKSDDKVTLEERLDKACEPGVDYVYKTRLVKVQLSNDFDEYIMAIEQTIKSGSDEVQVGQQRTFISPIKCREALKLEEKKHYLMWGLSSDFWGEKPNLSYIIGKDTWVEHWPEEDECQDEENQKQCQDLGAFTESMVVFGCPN
Sequence of UniProt P01024 (P01024 23-667 limits assumed, chain 2 of 2): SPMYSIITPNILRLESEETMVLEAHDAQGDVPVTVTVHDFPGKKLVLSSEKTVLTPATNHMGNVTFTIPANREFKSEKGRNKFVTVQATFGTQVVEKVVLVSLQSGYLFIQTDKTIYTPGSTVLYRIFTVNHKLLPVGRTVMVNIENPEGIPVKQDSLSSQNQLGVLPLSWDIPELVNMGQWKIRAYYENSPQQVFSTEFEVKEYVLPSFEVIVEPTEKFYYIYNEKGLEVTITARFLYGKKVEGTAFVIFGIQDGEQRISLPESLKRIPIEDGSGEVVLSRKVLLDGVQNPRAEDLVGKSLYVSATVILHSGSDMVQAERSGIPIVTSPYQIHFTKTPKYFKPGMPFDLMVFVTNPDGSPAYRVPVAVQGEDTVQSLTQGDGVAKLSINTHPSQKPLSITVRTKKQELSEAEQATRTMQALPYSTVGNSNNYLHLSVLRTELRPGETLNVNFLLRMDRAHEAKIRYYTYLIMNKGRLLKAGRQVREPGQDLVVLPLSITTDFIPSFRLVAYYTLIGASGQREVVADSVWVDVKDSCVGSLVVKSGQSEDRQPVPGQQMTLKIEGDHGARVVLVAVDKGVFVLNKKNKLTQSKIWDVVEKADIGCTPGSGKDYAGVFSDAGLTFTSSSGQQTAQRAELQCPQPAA

| half-maximum cleavage activity of hC3b (cofactor dilution, start 0.7 µg in 5 µl) (fold dilution (1:x)) | difference in half-maximum activity in the cleavage of human C3b against human FHL-1 (dilution step) | Substance |
| --- | --- | --- |
| 16 and 8 |  | human FHL-1 (factor H like protein 1), recombinant (from UniProt P08603 19-449) |
| 8 and 16 | < 1 | recombinant fragment pFH SCR1-4 (porcine complement regulator factor H, short consensus repeats 1-4) |
